Legend:
[1] = Cytokine response in vivo, multiplex bead assay; parameters: species or system BALB/c mice; conditions: 3.5 or 14 mg/kg iv; day 3
Protocol: In a preliminary study designed to evaluate potential cytokine responses in vivo, normal BALB/c mice were injected intravenously with either 3.5 mg/kg or 14 mg/kg (5 mice per group) of research-grade NEO-101. Blood was collected on Study Day 3 (^72 hours post-injection) and Study Day 10. Serum was prepared (including from the pre-bleed of each mouse) and tested for the presence of mouse IL-2, IFN-γ, IL-4, and IL-5 in a multiplex bead assay using the SearchLight Array service offered by Aushon BioSystems, Inc.

human tissues = assay: Immunohistochemistry of human tissues, overall; assay type: binding
Text: Thus, the NPC-1 epitope is expressed by colon and pancreatic tumor cells but not normal colon or pancreatic […] cells. Therefore, the NPC-1 epitope may be used as a tumor-specific marker or a therapeutic target for colon and pancreatic cancer. Further, peptidomimetics of the NPC-1 epitope (e.g., the polypeptide of SEQ ID NO: 1-24) as described herein may be used in the detection and treatment of cancer (e.g., colon, pancreas, breast, lung, ovarian, stomach, esophageal).

Pharmacokinetics = assay type: in vivo, mice; conditions: for serum half-life (t½): single dose 100 mg/kg
Protocol: To determine whether gender impacted the disposition of NEO-101 in vivo, each treatment group contained four males and four females. Clearance, Cmax and half-life following a single dose of 10 or 100 mg/kg were compared by non-parametric Mann-Whitney test. […] However, the serum half-life of NEO-101 was shorter in females than in males. […] However, it is likely that this is a spurious observation, arising from high inter-animal variability, as this difference in half-life was not replicated following multiple doses, regardless of dose level.
The data provides useful guidance for the dosing schedule of possible therapeutic regimes. Mice injected intravenously with 10 mg/kg of NEO-101 may be used for comparison to the doses used in therapy regiments for humans, for instance.

MUC5AC long construct = target: T1, MUC5AC long construct (Homo sapiens, UniProt P98088, DEL3501-3501/G3481S/I3234V); assay: Immunofluorescence of transfected CHO cells; assay type: cell-based; conditions: different plasmid clones of the MUC5AC long construct
T1 construct: expressed in transfected cells; host or cells: CHO cells, transient/clonal plasmid transfection
T1 sequence (P98088 with tags, fused parts or gaps I3234V/G3481S/DEL3501-3501): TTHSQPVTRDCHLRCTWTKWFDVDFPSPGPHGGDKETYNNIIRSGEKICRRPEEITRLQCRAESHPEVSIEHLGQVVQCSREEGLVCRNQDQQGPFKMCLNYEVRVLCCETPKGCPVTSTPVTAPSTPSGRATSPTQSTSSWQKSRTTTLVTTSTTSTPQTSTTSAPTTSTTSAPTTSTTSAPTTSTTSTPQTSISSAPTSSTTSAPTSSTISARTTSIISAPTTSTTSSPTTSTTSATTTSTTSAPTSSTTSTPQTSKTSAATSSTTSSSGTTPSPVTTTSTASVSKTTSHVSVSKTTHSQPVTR
Text: (§1) An exemplary amino acid sequence of MUC5AC is presented in SEQ ID NO: 36 with an exemplary nucleic acid sequence encoding MUC5AC presented in SEQ ID NO: 37. Therefore, a recombinant expression plasmid was designed and constructed that encoded residues upstream of tandem repeat units and two tandem repeat units (“MUC5AC-long” SEQ ID NO: 38 with the corresponding nucleic acid sequence of SEQ ID NO: 39). The MUC5AC long peptide corresponds to amino acid residues 2636 to 2942 of the MUC5AC protein (SEQ ID NO: 36). A second expression plasmid was designed and constructed that encoded primarily a short domain which connects to the central repetitive region and only a portion of the tandem repeat residues (“MUC5AC-short” SEQ ID NO: 40 with the nucleic acid encoding it in SEQ ID NO: 41). The MUC5AC short peptide corresponds to amino acid residues 2636 to 2763 of the MUC5AC protein (SEQ ID NO: 36). These smaller fragments of the large MUC5AC molecule were predicted to comprise NEO-101 antibody binding regions that contain the NPC-1 epitope(s).
(§2) The DNA sequences that contained NEO-101 antibody binding regions, based on the amino acid sequence, were back-translated to nucleic acid sequence and the DNAs were synthesized by methods well-known in the art. […]

MUC5AC short construct = target: T2, MUC5AC short construct (Homo sapiens, UniProt P98088, I3234V); assay: Immunofluorescence of transfected CHO cells; assay type: cell-based; conditions: different plasmid clones of the MUC5AC short construct
T2 construct: expressed in transfected cells; host or cells: CHO cells, transient/clonal plasmid transfection
T2 sequence (P98088 3212-3339 I3234V): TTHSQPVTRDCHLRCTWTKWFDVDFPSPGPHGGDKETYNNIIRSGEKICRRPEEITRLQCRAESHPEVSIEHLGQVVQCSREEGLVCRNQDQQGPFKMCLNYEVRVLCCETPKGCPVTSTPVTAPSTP
Text: as §1, §2

B1: NEO-101: Chimeric NEO-101 antibody, engineered in CHO-DG44 production cell clone 4B7; targets a variant of MUC5AC (protein)
light: QVVLTQSPVIMSASPGEKVTMTCSASSSISYMYWYQQKPGTSPKRWIYDTSKLASGVPARFSGSGSGTSYSLTISNMEAGDAATYYCHQRDSYPWTFGGGTNLEIK
heavy: QVQLKESGPDLVAPSQSLSITCTVSGFSLSKFGVNWVRQPPGKGLEWLGVIWGDGSTSYNSGLISRLSISKENSKSQVFLKLNSLQADDTATYYCVKPGGDYWGHGTSVTVSS
- serum level of IFN-γ [1]: no appreciable change
- serum level of IL-2 [1]: small increase
- serum level of IL-4 [1]: no appreciable change
- serum level of IL-5 [1]: small increase
- cross-reactivity in other normal human tissues stained (human tissues): no cross-reactivity
- serum half-life (t½) (Pharmacokinetics; females): 109.5 ± 14.72 h
- serum half-life (t½) (Pharmacokinetics; males): 285.4 ± 139.5 h
- clearance (Pharmacokinetics; mice): low clearance
- volume of distribution (Pharmacokinetics; mice): limited volume of distribution
- gender-specific differences in clearance or Cmax (Pharmacokinetics; single dose of 10 or 100 mg/kg): No significant gender-specific differences were observed
- CHO cells bound by antibody (MUC5AC long construct): 76%-88%
- CHO cells bound by antibody (MUC5AC short construct): 11%-80%
